Experimental data reported in article PMC7710607.

Biological target: ACSL1 (UniProt P41216)
Test: co-IP of tagged proteins, blot
Conditions: reference: wild type TBK1; sites S172

- binding against the reference: stronger
Substance: TBK1 (flag-human TBK1) (from UniProt Q9UHD2) S172A
